Results on two molecules are retold here after US20220042996A1, “COMPOSITIONS AND METHODS RELATED TO LATROPHILINS AS BIOMARKERS FOR HAEMATOPOIETIC CELL CANCER” (priority 2015, published 2022).

Holding throughout (format): cell-based
Assay [1] deals with AML-PB001F primary human AML cells. In words: LPHN1/2 protein levels by Western blot in primary human AML cells. Conditions: 4 h, 1 μg/ml LPS, 0.1 μg/ml SCF or 2 μg/ml anti-Tim-3 antibody. As to the method:
Levels of LPHN 1 and LPHN 2, total and phospho-T389 p70 S6K1 were determined by Western blot analysis and compared to β-actin in order to determine equal protein loading, as described by Yasinska I. M. et al (Cell. Mol. Life Sci. (2014) 71 699-710). Li-Cor goat secondary antibodies, conjugated with fluorescent dyes, were used according to the manufacturer's protocol to visualise the proteins of interest using a Li-Cor Odyssey imaging system. Western blot data were analysed quantitatively using Odyssey software and values were normalised against respective β-actin bands.
(§1) Primary human AML mononuclear cells (AML-PB001 F, newly diagnosed/untreated) were purchased from AllCells (Alameda, Calif., USA) and handled in accordance with manufacturer's instructions.
(§2) To analyse LPHN1/2 expression levels in AML-PB001F cells, the cells were exposed to mTOR activators (1 μg/ml LPS, 0.1 μg/ml SCF or 2 μg/ml anti-Tim-3 antibody) for 4 h.
In general terms: Immunoblotting shows a protein as a band on a membrane.

The subject of another assay is mTOR. In words: Phospho-S2448 mTOR ELISA in primary human AML cells. The settings on record: AML-PB001F cells; for mTOR activation: 24 h. As to the method:
Phosphorylation of mTOR was monitored using ELISA assays as recently described (Yasinska I. M. et al (supra); Abooali M. et al (2014) Sci. Rep. 4 6307; Prokhorov A. et al (supra)). Briefly, ELISA plates were coated with mouse anti-mTOR antibodies and blocked with 2% BSA. Cell lysates were then added to the wells and kept at room temperature for at least 2 h (under constant agitation). After extensive washing with TBST buffer (Tris-Buffered Saline and Tween 20), […] mTOR antibody was added and plates were incubated for at least 2 h at room temperature with constant agitation. Plates were then washed with TBST buffer and incubated with 1:1000 Horse Radish Peroxidase-labelled goat anti-rabbit IgG in TBST buffer. After extensive washing with TBST, bound secondary antibodies were then detected by the peroxidase reaction (ortho-phenylenediamine/H2O2).
as §1
(§3) Experiments were carried out to ascertain whether or not LPHN 1 and LPHN 2 are expressed and function in primary human AML cells. AML-PB001 F primary human mononuclear blasts were used and exposed for 24 h to 1 μg/ml LPS, 500 pM LTX or a combination of these ligands.
as §2
On the technique in general: ELISA stands for enzyme-linked immunosorbent assay.

Assay [2] has as its system primary healthy human leukocytes. In words: Latrophilin protein expression by Western blot in primary healthy human leukocytes. Conditions: primary leucocytes from healthy donors, 4 or 24 h exposure. As to the method:
Primary AML-PB001F cells were exposed for 4 h (A) and healthy human leukocytes for 4 h (B) or 24 h (C) to indicated concentrations of LPS, SCF and anti-Tim-3. Following cell lysis, latrophilin protein levels were analysed by Western blot. Phospho-S2448 mTOR was measured by ELISA. Furthermore, non-treated THP-1 cells, primary human AML cells and primary healthy human leukocytes, as well as those stimulated for 24 h with 1 μg/ml LPS were subjected to quantitative real time polymerase chain reaction qRT-PCR (D). Images show one representative result of at least four experiments, which gave similar results. Data are mean values±SD (n=4). *-p<0.05; **-p<0.01.
Levels of LPHN 1 and LPHN 2, total and phospho-T389 p70 S6K1 were determined by Western blot analysis and compared to β-actin in order to determine equal protein loading, as described by Yasinska I. M. et al (Cell. Mol. Life Sci. (2014) 71 699-710). Li-Cor goat secondary antibodies, conjugated with fluorescent dyes, were used according to the manufacturer's protocol to visualise the proteins of interest using a Li-Cor Odyssey imaging system. Western blot data were analysed quantitatively using Odyssey software and values were normalised against respective β-actin bands. […]

Assay [3] deals with AML-PB001F primary human AML cells. In words: IL-6 release by ELISA in primary human AML cells. The settings on record: 24 h. Here is the method:
(§4) Concentrations of IL-6 released into the cell culture media were analysed by ELISA (R&D Systems assay kit) according to the manufacturers protocol.
as §1, §3

For another assay, the system named is THP-1 human AML cells. In words: IL-6 release by ELISA in THP-1 cells. Conditions: 24 h, 500 pM LTX in combination with 1 μg/ml LPS. As to the method:
(§5) THP-1 and U937 human leukaemia monocytic macrophages were obtained from the European Collection of Cell Cultures (Salisbury, UK). Cells were cultured in RPMI 1640 media supplemented with 10% foetal calf serum, penicillin (50 IU/ml) and streptomycin sulphate (50 μg/ml).
as §4
(§6) Expression of LPHN 1 and LPHN 2 in human AML cell lines—U937 and THP-1—was investigated. Cells were stimulated for 24 h with 1 μg/ml LPS, 500 pM LTX or a combination of these ligands. LPS is a pathogen-associated molecular pattern shared by Gram-negative bacteria and is recognised by the Toll-like receptor 4 (TLR4), which is highly expressed by human myeloid cells. Importantly, LPS was chosen because TLR4 may be targeted by endogenous ligands (like proteins released by dysfunctional mitochondria) to promote expression/release of IL-6 and other important cytokines/growth factors required for leukaemia cell survival.

Another assay concerns U937 human AML cells. In words: IL-6 release by ELISA in U937 cells. The settings on record: 24 h, 500 pM LTX in combination with 1 μg/ml LPS. As to the method:
as §5, §4, §6

The mark [4] stands for this setting: 500 pM LTX in combination with 1 μg/ml LPS.
The mark [5] stands for this setting: 1 μg/ml LPS alone or 500 pM LTX alone.

“Also recorded” adds a separate entry of the source.

“SCF: Human Stem Cell Factor protein produced in E. coli; binds Kit (CD117)”: in assay [1], the LPHN1/2 expression entry is given as “significantly up-regulated” and the LPHN2 expression entry is “significantly up-regulated”. In addition, the “phosphorylation of S2448 in mTOR (mTOR activation)” value in the assay on mTOR (4 h, 1 μg/ml LPS, 0.1 μg/ml SCF or 2 μg/ml anti-Tim-3 antibody) was “significantly increased; also recorded: strongest effect”. Also, in assay [2], the latrophilin expression entry is recorded as “not inducible”.

B1: LTX (protein)
chain: EGEDLTLEEKAEICSELELQQKYVDIASNIIGDLSSLPIAGKIAGTIAAAAMTATHVASGRLDIEQTLLGCSDLPFDQIKEVLENRFNEIDRKLDSHSAALEEITKLVEKSISVVEKTRKQMNKRFDEVMKSIQDAKVSPIISKINNFARYFDTEKERIRGLKLNDYILKLEEPNGILLHFKESRTPTDDSLQAPLFSIIEEGYAVPKSIDDELAFKVLYALLYGTQTYVSVMFFLLEQYSFLANHYYEKGYLEKYDEYFNSLNNVFLDFKSSLVGTGTSNNEGLLDRVLQVLMTVKNSEFLGLEKNGVDEMLNEKINLFNKIKEEIEGKQKMTLSETPENFAQISFDKDITTPIGDWRDGREVRYAVQYASETLFSKISHWSDPVSVREKACPTLRMPVDQTRRNVLVFRKFDSSKPQLVGEITPYLSNFIDIDRDLYNAASNPDSAVGFKEFTKLNYDGANIRATFDHGRTVFHAAAKSGNDKIMFGLTFLAKSTELNQPDKKGYTPIHVAADSGNAGIVNLLIQRGVSINSKTYHFLQTPLHLAAQRGFVTTFQRLMESPEININERDKDGFTPLHYAIRGGERILEAFLNQISIDVNAKSNTGLTPFHLAIIKNDWPVASTLLGSKKVDINAVDENNITALHYAAILGYLETTKQLINLKEINANVVSSPGLLSALHYAILYKHDDVASFLMRSSNVNVNLKALGGITPLHLAVIQGRKQILSLMFDIGVNIEQKTDEKYTPLHLAAMSKYPELIQILLDQGSNFEAKTNSGATPLHLATFKGKSQAALILLNNEVNWRDTDENGQMPIHGAAMTGLLDVAQAIISIDATVVDIEDKNSDTPLNLAAQNSHIDVIKYFIDQGADINTRNKKGLAPLLAFSKKGNLDMVKYLFDKNANVYIADNDGMNFFYYAVQNGHLNIVKYAMSEKDKFEWSNTDNNRRDECPNEECAISHFAVCDAVQFDRIEIVKYFVGTLGNFAICGPLHQAARYGHLDIVKYLVEEEFLSVDGSKTDTPLCYASENGHFTVVQYLVSNGAKVNHDCGNGMTAIDKAITKNHLQVVQFLAANGVDFRRKNSRGTTPFLTAVAENALHIAEYLIREKRQDININEQNVDKDTALHLAVYYKNLQMIKLLIKYGIDVTIRNAYDKTALDIAIDAKFSNIVEYLKTKSGKFRR
Turning to B1, in assay [3] (setting [4]), the IL-6 exocytosis entry is recorded as “significantly up-regulated”. Further, the IL-6 release entry in assay [3] (setting [5]) is “did not influence”. Besides, the “LPS-induced IL-6 exocytosis” value with THP-1 human AML cells and with U937 human AML cells was “highly up-regulated” in each case. Further, the mTOR activation result in the assay with mTOR (setting [4]) is on record as “significantly up-regulated”; in the assay with mTOR (setting [5]) it was “did not influence”.
